What was measured:
[1] = target: EGFR-TEV-NIa-Pro cleavage (Leu)-tTA (human) (UniProt P00533); experiment: cell-based or functional assay
[2] = target: CCR5-tTA fusion construct containing the low efficiency cleavage site (UniProt P51681); experiment: cell-based or functional assay
UniProt P51681, sequence (P51681 whole entry, the tested form may be a part): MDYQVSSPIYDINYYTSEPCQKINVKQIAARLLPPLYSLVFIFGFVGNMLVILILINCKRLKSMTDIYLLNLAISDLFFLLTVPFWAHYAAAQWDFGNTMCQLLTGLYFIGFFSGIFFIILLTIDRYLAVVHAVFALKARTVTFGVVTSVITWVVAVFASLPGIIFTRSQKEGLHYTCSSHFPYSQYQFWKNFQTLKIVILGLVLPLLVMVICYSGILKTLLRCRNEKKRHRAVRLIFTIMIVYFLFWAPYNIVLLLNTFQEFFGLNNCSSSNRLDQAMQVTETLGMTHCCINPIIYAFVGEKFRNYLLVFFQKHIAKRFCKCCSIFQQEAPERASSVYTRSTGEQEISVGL

Substance | increase of luciferase reporter gene activity at 100 ng/ml ligand, cells co-expressing PLC Gamma1-TEV [1] [fold] | induction of β-galactosidase reporter gene expression over background at 1 µg/ml RANTES, clone 34 cells with stable ARRB2-TEV-NIa protease [2] [fold]
human Transforming Growth Factor-Alpha (from UniProt P01135 40-89) (ligand) | 18.3 | 
Regulated on Activation, Normal T-Cell Expressed and Secreted (RANTES) (from UniProt P13501 24-91) (ligand) |  | 40

Reference: patent US20070224615A1
